In the supplement of paper PMC10126150:
± gives the standard deviation of the averaged measurements.

Test system: ATP
Assay: switch fluorescence ratio, 500 uM ATP over buffer (Cy3 cluster intensity, sum of 5 cycles each) (fold (ratio)); higher = stronger signal-on switching upon ATP binding; sequences stand for … in TCGTCGGCAGCGTCAGATGTGTATAAGAGACAGTTTTTTTTTTTTTTTTTTTTTTTTT…TC
Conditions: aptamer strand: ATP DNA aptamer (quencher-CACCTGGGGGAGTATTGCGGAGGAAGG + anchor), 100 nM annealed; ATP concentration: 500 uM
Method in brief: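 Between each of five buffer/ATP cycles, the flow-cell was stripped with NaOH and re-annealed. Each cycle imaged Cy3-labelled switching-strand clusters, annealed to 100 nM quencher-labelled ATP aptamer on a modified Illumina MiSeq flow-cell, first in selection buffer and then after 15 min with 500 uM ATP at 22 °C. The fluorescence ratio is summed target-cycle over summed buffer-cycle Cy3 intensity per cluster, averaged per switch-domain sequence, with clusters outside 100-1000 RFU excluded.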
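Also: ATP exposure 15 min at 22 °C before imaging.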

TTCCCCCTTT and TTCCCCGTTG are within error of each other in switch fluorescence ratio: 1.45 ± 0.58 for the first, 1.12 ± 0.15 for the second.

TTCCCGAAGT and TTCCCGGACT are the same in switch fluorescence ratio: 1.02 ± 0.04 for the first, 1.02 ± 0.024 for the second.

TTCCCGTGGG and TTCCGAAGGT are within error of each other in switch fluorescence ratio: 1 ± 0.011 for the first, 1.03 ± 0.03 for the second.

First: TTCCGAGATA
Second: TTCCGAGCTA
The switch fluorescence ratio of the first is lower: 1.119 ± 0.0079 for the first, 2.563 ± 0.0074 for the second.

TTCCGCCGCT and TTCCGGGAGG are within error of each other in switch fluorescence ratio: 2.34 ± 1.8 for the first, 0.993 ± 0.076 for the second.

TTCCGGGGCG and TTCCGGTCTT are within error of each other in switch fluorescence ratio: 0.991 ± 0.038 for the first, 1.03 ± 0.066 for the second.

TTCCGGTTGT and TTCCGTTATG are within error of each other in switch fluorescence ratio: 1.03 ± 0.011 for the first, 1.04 ± 0.037 for the second.

TTCCTCTGTT and TTCCTGAGGG are within error of each other in switch fluorescence ratio: 1.37 ± 0.26 for the first, 1.11 ± 0.058 for the second.

First: TTCCTGGAC
Second: TTCCTTAGCG
The switch fluorescence ratio of the first is higher: 1.7 ± 0.39 for the first, 1.03 ± 0.015 for the second.

TTCCTTGGAT and TTCCTTGGTC are within error of each other in switch fluorescence ratio: 1.015 ± 0.0019 for the first, 1.18 ± 0.24 for the second.

TTCCTTTTGT and TTCGAAGGTT are within error of each other in switch fluorescence ratio: 1.29 ± 0.43 for the first, 0.979 ± 0.017 for the second.

TTCGACGCTA and TTCGACGGTT are within error of each other in switch fluorescence ratio: 1.33 ± 0.57 for the first, 1.03 ± 0.033 for the second.

TTCGACTTCG and TTCGACTTTT are within error of each other in switch fluorescence ratio: 0.9903 ± 0.0063 for the first, 0.988 ± 0.051 for the second.

TTCGAGACTT and TTCGAGCGAT are within error of each other in switch fluorescence ratio: 1.05 ± 0.055 for the first, 1.78 ± 0.98 for the second.

TTCGAGTTGG and TTCGATCGTT are within error of each other in switch fluorescence ratio: 0.9772 ± 0.0027 for the first, 1.01 ± 0.043 for the second.

Going from TTCGATGCAT to TTCGATTGTT, the switch fluorescence ratio falls from 1.58 ± 0.43 to 0.952 ± 0.018.

TTCGCCTAAG and TTCGCGGGTT are within error of each other in switch fluorescence ratio: 0.9658 ± 0.0067 for the first, 0.97 ± 0.01 for the second.

TTCGCTGGGT and TTCGGAAATG are within error of each other in switch fluorescence ratio: 0.995 ± 0.017 for the first, 1.03 ± 0.025 for the second.

TTCGGAACAG and TTCGGAAGGG are within error of each other in switch fluorescence ratio: 0.967 ± 0.013 for the first, 0.956 ± 0.025 for the second.

Going from TTCGGAAGTT to TTCGGAATTG, the switch fluorescence ratio rises from 0.966 ± 0.021 to 1.04 ± 0.033.

TTCGGACTGC and TTCGGAGGGA are within error of each other in switch fluorescence ratio: 1.06 ± 0.031 for the first, 2.2 ± 1.5 for the second.

TTCGGAGTTG and TTCGGATGGC are within error of each other in switch fluorescence ratio: 1 ± 0.022 for the first, 1.01 ± 0.084 for the second.

First: TTCGGATTCG
Second: TTCGGATTGG
The switch fluorescence ratio of the first is lower: 0.968 ± 0.03 for the first, 1.01 ± 0.0061 for the second.

TTCGGCGACG and TTCGGCGCTG are within error of each other in switch fluorescence ratio: 1.0016 ± 0.00078 for the first, 1.03 ± 0.074 for the second.

TTCGGGATTA and TTCGGGGAAA are within error of each other in switch fluorescence ratio: 1 ± 0.018 for the first, 1.02 ± 0.043 for the second.

TTCGGGGAAC and TTCGGGGGGA are within error of each other in switch fluorescence ratio: 1.06 ± 0.11 for the first, 1.04 ± 0.09 for the second.

TTCGGGGTGG and TTCGGGTTTT are within error of each other in switch fluorescence ratio: 0.9976 ± 0.0066 for the first, 1 ± 0.033 for the second.

TTCGGTACTG and TTCGGTATGT are the same in switch fluorescence ratio: 1.01 ± 0.033 for the first, 1.01 ± 0.027 for the second.

TTCGGTGGCG and TTCGGTGGGT are within error of each other in switch fluorescence ratio: 0.978 ± 0.077 for the first, 0.988 ± 0.027 for the second.

TTCGGTGGTT and TTCGTACAGC are within error of each other in switch fluorescence ratio: 1.08 ± 0.076 for the first, 1.04 ± 0.036 for the second.

TTCGTAGAAA and TTCGTATGGG are within error of each other in switch fluorescence ratio: 1.05 ± 0.032 for the first, 1.09 ± 0.12 for the second.

TTCGTCGGAT and TTCGTGGGGA are within error of each other in switch fluorescence ratio: 0.9991 ± 0.0037 for the first, 0.995 ± 0.025 for the second.

TTCGTGTACG and TTCGTGTATT are within error of each other in switch fluorescence ratio: 1.02 ± 0.019 for the first, 1 ± 0.025 for the second.

Compared with TTCGTTAAAG, TTCGTTAAGA is higher in switch fluorescence ratio: 0.9612 ± 0.002 for the first, 0.992 ± 0.0094 for the second.

TTCGTTATGT and TTCGTTCGGT are within error of each other in switch fluorescence ratio: 0.98 ± 0.027 for the first, 1.06 ± 0.07 for the second.

TTCGTTCTTC and TTCGTTGGGG are within error of each other in switch fluorescence ratio: 0.993 ± 0.019 for the first, 1.01 ± 0.041 for the second.

TTCGTTTATT and TTCGTTTCGT are within error of each other in switch fluorescence ratio: 1.01 ± 0.046 for the first, 0.995 ± 0.014 for the second.

TTCGTTTTAG and TTCGTTTTCT are within error of each other in switch fluorescence ratio: 0.996 ± 0.033 for the first, 1 ± 0.039 for the second.

TTCGTTTTGA and TTCTAAAAAA are within error of each other in switch fluorescence ratio: 1.02 ± 0.057 for the first, 1.01 ± 0.021 for the second.

TTCTAAAGGG and TTCTAACTGG are within error of each other in switch fluorescence ratio: 0.984 ± 0.065 for the first, 0.995 ± 0.013 for the second.

TTCTAAGGTA and TTCTACTGGG are within error of each other in switch fluorescence ratio: 0.993 ± 0.021 for the first, 1.01 ± 0.028 for the second.

TTCTAGTCTA and TTCTATATGT are within error of each other in switch fluorescence ratio: 0.987 ± 0.01 for the first, 0.977 ± 0.027 for the second.

TTCTATGCAT and TTCTATTCTT are within error of each other in switch fluorescence ratio: 1.14 ± 0.13 for the first, 1.02 ± 0.026 for the second.

TTCTCAAAGA and TTCTCGAGTT are within error of each other in switch fluorescence ratio: 1.07 ± 0.1 for the first, 0.992 ± 0.013 for the second.

TTCTCGTACA and TTCTCTAATG are within error of each other in switch fluorescence ratio: 1.19 ± 0.29 for the first, 1.03 ± 0.016 for the second.

TTCTCTATAT and TTCTCTTGTT are within error of each other in switch fluorescence ratio: 1.05 ± 0.11 for the first, 1 ± 0.037 for the second.

Going from TTCTGAATTT to TTCTGACGGT, the switch fluorescence ratio rises from 0.999 ± 0.028 to 1.12 ± 0.037.

TTCTGCGGCT and TTCTGCTCGC are within error of each other in switch fluorescence ratio: 1.12 ± 0.039 for the first, 1.08 ± 0.058 for the second.

TTCTGGATCT and TTCTGGCATG are within error of each other in switch fluorescence ratio: 0.996 ± 0.044 for the first, 1.09 ± 0.099 for the second.

TTCTGGGGCT and TTCTGGGGTG are within error of each other in switch fluorescence ratio: 1.03 ± 0.017 for the first, 1.46 ± 0.67 for the second.
